Drawing on patent US20090123479A1 (published 2009), this text covers Kd, koff and kon for 15 molecules.

A word on the Kd: it is the equilibrium constant for the complex coming apart. By koff is commonly meant the first-order rate constant of dissociation. By kon is commonly meant a measure of how fast the partners come together.

The experiment has as its target T1, recombinant human IL-23 (human, UniProt Q9NPF7 20-189; P29460 23-328).
T1 construct: also called hIL-23
T1 sequence 1: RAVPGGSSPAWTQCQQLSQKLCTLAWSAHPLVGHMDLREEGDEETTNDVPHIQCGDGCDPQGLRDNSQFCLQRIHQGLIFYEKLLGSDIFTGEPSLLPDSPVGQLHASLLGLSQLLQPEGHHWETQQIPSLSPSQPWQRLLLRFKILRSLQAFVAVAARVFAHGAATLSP
T1 sequence 2: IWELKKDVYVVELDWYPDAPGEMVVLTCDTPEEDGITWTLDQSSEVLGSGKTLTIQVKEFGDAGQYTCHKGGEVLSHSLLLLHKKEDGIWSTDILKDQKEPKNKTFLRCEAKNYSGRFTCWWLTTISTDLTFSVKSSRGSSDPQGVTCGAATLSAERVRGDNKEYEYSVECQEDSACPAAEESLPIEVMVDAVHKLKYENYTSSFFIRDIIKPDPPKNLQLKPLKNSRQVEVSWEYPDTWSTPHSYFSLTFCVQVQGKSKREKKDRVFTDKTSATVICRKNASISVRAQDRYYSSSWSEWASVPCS
The experiment in a line: SPR (Biacore T100), tissue culture supernatant antibody captured on anti-human IgG, IL-23 analyte. The method, then: Biacore analysis was carried out using a capture surface on a CM5 chip. Anti-human IgG (BR-1008-39) was used as the capturing agent. Anti-human IgG was coupled to a CM5 biosensor chip by primary amine coupling. Humanized antibody was captured on this immobilised surface and defined concentrations of IL-23 were passed over this captured surface. An injection of buffer over the captured antibody surface was used for double-referencing. […] T100 Biacore machine was used to generate the data; all runs were carried out at 25° C. using HBS EP. Data was analysed using the software inherent to the machine and fitted to the 1:1 model of binding. Tables 7 and 8 detail the IL-23 binding analysis carried out on the 8C92H6.HC1LC1 chimera and selected humanized variants in two separate experiments. […] The data shown for the humanized variants is representative of a number of runs. The chimeric mAb (8C9H6.HC1LC1) was only run once in each experiment, so data shown for this mAb is from that one run.
(Surface plasmon resonance follows binding to a sensor surface in real time, without labels.)

B1: A3M4 (antibody, human IgG1, kappa, V domains shown)
VH: QVQLVQSGAEVKKPGSSVKVSCKASGYTFTSYGITWVRQAPGQGLEWMGENYPRSGNTYYNEKFKGRVTITADKSTSTAYMELSSLRSEDTAVYYCARSEFISTVVAPYYYALDYWGQGTLVTVSS
VL: DIVMTQSPDSLAVSLGERATINCKASKKVTIFGSTSALHWYQQKPGQPPKLIYNGAKPESGVPDRFSGSGSGTDFTLTISSLQAEDVAVYYCLQNKEVPYTFGGGTKVEIKR
notes: Full length chains
Regarding B1, the equilibrium dissociation constant (Kd) was 0.0775 nM, the koff came to 0.000106 s⁻¹ and the on-rate (kon) was 1.36e+06 M⁻¹ s⁻¹.

B2: A12.5M3 (antibody, V domains shown)
VH: QVQLVQSGAEVKKPGSSVKVSCKASGYTFASYGITWVRQAPGQGLEWMGENYPRSGNTYYNEKFKGRVTITADKSTSTAYMELSSLRSEDTAVYYCARVEFISTVVAPYYYALDYWGQGTLVTVSS
VL: DIVMTQSPDSLAVSLGERATINCKASKKVTIFGSTSALHWYQQKPGQPPKLIYNGAKLESGVPDRFSGSGSGTDFTLTISSLQAEDVAVYYCLQNKEVPYTFGGGTKVEIK
Regarding B2, the equilibrium dissociation constant (Kd) stood at 0.0637 nM, the off-rate (koff) worked out at 0.000172 s⁻¹ and the kon was 2.7e+06 M⁻¹ s⁻¹.

B3: A10M3 (antibody, human IgG1, kappa, V domains shown)
VH: QVQLVQSGAEVKKPGSSVKVSCKASGYTFASYGITWVRQAPGQGLEWMGENYPRSGNTYYNEKFKGRVTITADKSTSTAYMELSSLRSEDTAMYYCARSEFISTVVAPYYYALDYWGQGTLVTVSS
VL: DIVMTQSPDSLAVSLGERATINCKASKKVTIFGSTSALHWYQQKPGQPPKLIYNGAKLESGVPDRFSGSGSGTDFTLTISSLQAEDVAVYYCLQNKEVPYTFGGGTKVEIKR
notes: Full length chains
With B3, the Kd amounted to 0.106 nM, the koff worked out at 0.000117 s⁻¹ and the association rate constant (kon) is 1.11e+06 M⁻¹ s⁻¹.

B4: A5M4 (antibody, human IgG1, kappa, V domains shown)
VH: QVQLVQSGAEVKKPGSSVKVSCKASGYTFTSYGITWVRQAPGQGLEWMGENYPRSGNTYYNEKFKGRVTITADKSTSTAYMELSSLRSEDTAVYYCARAEFISTVVAPYYYALDYWGQGTLVTVSS
VL: DIVMTQSPDSLAVSLGERATINCKASKKVTIFGSTSALHWYQQKPGQPPKLIYNGAKPESGVPDRFSGSGSGTDFTLTISSLQAEDVAVYYCLQNKEVPYTFGGGTKVEIKR
notes: Full length chains
For the molecule B4, the Kd is 0.053 nM, the koff worked out at 0.000101 s⁻¹ and the on-rate (kon) is 1.91e+06 M⁻¹ s⁻¹.

B5: A11.5M3 (antibody, V domains shown)
VH: QVQLVQSGAEVKKPGSSVKVSCKASGYTFASYGITWVRQAPGQGLEWMGENYPRSGNTYYNEKFKGRVTITADKSTSTAYMELSSLRSEDTAVYYCARAEFISTVVAPYYYALDYWGQGTLVTVSS
VL: DIVMTQSPDSLAVSLGERATINCKASKKVTIFGSTSALHWYQQKPGQPPKLIYNGAKLESGVPDRFSGSGSGTDFTLTISSLQAEDVAVYYCLQNKEVPYTFGGGTKVEIK
Consider B5, for which the Kd was 0.0606 nM, the koff turned out to be 9.38e-05 s⁻¹ and the on-rate (kon) is 1.55e+06 M⁻¹ s⁻¹.

B6: A11.5M4 (antibody, V domains shown)
VH: QVQLVQSGAEVKKPGSSVKVSCKASGYTFASYGITWVRQAPGQGLEWMGENYPRSGNTYYNEKFKGRVTITADKSTSTAYMELSSLRSEDTAVYYCARAEFISTVVAPYYYALDYWGQGTLVTVSS
VL: DIVMTQSPDSLAVSLGERATINCKASKKVTIFGSTSALHWYQQKPGQPPKLIYNGAKPESGVPDRFSGSGSGTDFTLTISSLQAEDVAVYYCLQNKEVPYTFGGGTKVEIK
B6: the Kd was 0.0665 nM, the koff amounted to 9.62e-05 s⁻¹ and the kon came to 1.45e+06 M⁻¹ s⁻¹.

B7: A3M6 (antibody, human IgG1, kappa, V domains shown)
VH: QVQLVQSGAEVKKPGSSVKVSCKASGYTFTSYGITWVRQAPGQGLEWMGENYPRSGNTYYNEKFKGRVTITADKSTSTAYMELSSLRSEDTAVYYCARSEFISTVVAPYYYALDYWGQGTLVTVSS
VL: DIVMTQSPDSLAVSLGERATINCKASKKVTIFGSISALHWYQQKPGQPPKLIYQGAKLESGVPDRFSGSGSGTDFTLTISSLQAEDVAVYYCLQNKEVPYTFGGGTKVEIKR
notes: Full length chains
Turning to B7, the Kd was found to be 1.23 nM, the koff is 0.0011 s⁻¹ and the kon was found to be 896000 M⁻¹ s⁻¹.

B8: A10M4 (antibody, human IgG1, kappa, V domains shown)
VH: QVQLVQSGAEVKKPGSSVKVSCKASGYTFASYGITWVRQAPGQGLEWMGENYPRSGNTYYNEKFKGRVTITADKSTSTAYMELSSLRSEDTAMYYCARSEFISTVVAPYYYALDYWGQGTLVTVSS
VL: DIVMTQSPDSLAVSLGERATINCKASKKVTIFGSTSALHWYQQKPGQPPKLIYNGAKPESGVPDRFSGSGSGTDFTLTISSLQAEDVAVYYCLQNKEVPYTFGGGTKVEIKR
notes: Full length chains
For B8, the Kd is 0.0733 nM, the koff was 0.000107 s⁻¹ and the kon came to 1.46e+06 M⁻¹ s⁻¹.

B9: A8M4 (antibody, V domains shown)
VH: QVQLVQSGAEVKKPGSSVKVSCKASGYTFTSYGITWVRQAPGQGLEWMGEDYPRSGNTYYNEKFKGRVTITADKSTSTAYMELSSLRSEDTAVYYCARAEFISTVVAPYYYALDYWGQGTLVTVSS
VL: DIVMTQSPDSLAVSLGERATINCKASKKVTIFGSTSALHWYQQKPGQPPKLIYNGAKPESGVPDRFSGSGSGTDFTLTISSLQAEDVAVYYCLQNKEVPYTFGGGTKVEIK
Take B9: the dissociation constant Kd worked out at 0.0462 nM, the koff was determined as 9.58e-05 s⁻¹ and the kon worked out at 2.08e+06 M⁻¹ s⁻¹.

B10: A6M4 (antibody, human IgG1, kappa, V domains shown)
VH: QVQLVQSGAEVKKPGSSVKVSCKASGYTFTSYGITWVRQAPGQGLEWMGENYPRSGNTYYNEKFKGRVTITADKSTSTAYMELSSLRSEDTAVYYCARVEFISTVVAPYYYALDYWGQGTLVTVSS
VL: DIVMTQSPDSLAVSLGERATINCKASKKVTIFGSTSALHWYQQKPGQPPKLIYNGAKPESGVPDRFSGSGSGTDFTLTISSLQAEDVAVYYCLQNKEVPYTFGGGTKVEIKR
notes: Full length chains
B10: the Kd is 0.0465 nM, the off-rate (koff) is 0.000149 s⁻¹ and the kon amounted to 3.22e+06 M⁻¹ s⁻¹.

B11: A7M4 (antibody, human IgG1, kappa, V domains shown)
VH: QVQLVQSGAEVKKPGSSVKVSCKASGYTFTSYGITWVRQAPGQGLEWMGEDYPRSGNTYYNEKFKGRVTITADKSTSTAYMELSSLRSEDTAVYYCARSEFISTVVAPYYYALDYWGQGTLVTVSS
VL: DIVMTQSPDSLAVSLGERATINCKASKKVTIFGSTSALHWYQQKPGQPPKLIYNGAKPESGVPDRFSGSGSGTDFTLTISSLQAEDVAVYYCLQNKEVPYTFGGGTKVEIKR
notes: Full length chains
B11: the Kd turned out to be 0.0918 nM, the off-rate constant (koff) was 0.000123 s⁻¹ and the association rate constant (kon) was 1.34e+06 M⁻¹ s⁻¹.

B12: A9M4 (antibody, V domains shown)
VH: QVQLVQSGAEVKKPGSSVKVSCKASGYTFTSYGITWVRQAPGQGLEWMGEDYPRSGNTYYNEKFKGRVTITADKSTSTAYMELSSLRSEDTAVYYCARVEFISTVVAPYYYALDYWGQGTLVTVSS
VL: DIVMTQSPDSLAVSLGERATINCKASKKVTIFGSTSALHWYQQKPGQPPKLIYNGAKPESGVPDRFSGSGSGTDFTLTISSLQAEDVAVYYCLQNKEVPYTFGGGTKVEIK
As to B12, the dissociation constant (Kd) stood at 0.0456 nM, the koff is 0.000129 s⁻¹ and the on-rate constant (kon) stood at 2.83e+06 M⁻¹ s⁻¹.

B13: A10.5M3 (antibody, V domains shown)
VH: QVQLVQSGAEVKKPGSSVKVSCKASGYTFASYGITWVRQAPGQGLEWMGENYPRSGNTYYNEKFKGRVTITADKSTSTAYMELSSLRSEDTAVYYCARSEFISTVVAPYYYALDYWGQGTLVTVSS
VL: DIVMTQSPDSLAVSLGERATINCKASKKVTIFGSTSALHWYQQKPGQPPKLIYNGAKLESGVPDRFSGSGSGTDFTLTISSLQAEDVAVYYCLQNKEVPYTFGGGTKVEIK
Consider B13, for which the equilibrium dissociation constant (Kd) is 0.0962 nM, the koff stood at 0.000115 s⁻¹ and the on-rate constant (kon) came to 1.19e+06 M⁻¹ s⁻¹.

B14: A3M5 (antibody, human IgG1, kappa, V domains shown)
VH: QVQLVQSGAEVKKPGSSVKVSCKASGYTFTSYGITWVRQAPGQGLEWMGENYPRSGNTYYNEKFKGRVTITADKSTSTAYMELSSLRSEDTAVYYCARSEFISTVVAPYYYALDYWGQGTLVTVSS
VL: DIVMTQSPDSLAVSLGERATINCKASKKVTIFGSISALHWYQQKPGQPPKLIYDGAKLESGVPDRFSGSGSGTDFTLTISSLQAEDVAVYYCLQNKEVPYTFGGGTKVEIKR
notes: Full length chains
As for B14, the equilibrium dissociation constant (Kd) turned out to be 26.4 nM, the koff is 0.0012 s⁻¹ and the kon is 45500 M⁻¹ s⁻¹.

B15: A10.5M4 (antibody, V domains shown)
VH: QVQLVQSGAEVKKPGSSVKVSCKASGYTFASYGITWVRQAPGQGLEWMGENYPRSGNTYYNEKFKGRVTITADKSTSTAYMELSSLRSEDTAVYYCARSEFISTVVAPYYYALDYWGQGTLVTVSS
VL: DIVMTQSPDSLAVSLGERATINCKASKKVTIFGSTSALHWYQQKPGQPPKLIYNGAKPESGVPDRFSGSGSGTDFTLTISSLQAEDVAVYYCLQNKEVPYTFGGGTKVEIK
With B15, the equilibrium dissociation constant (Kd) turned out to be 0.0416 nM, the koff was found to be 8.64e-05 s⁻¹ and the kon came to 2.08e+06 M⁻¹ s⁻¹.
